Measured values as given in paper PMC7749166 (Communications Biology, 2020).

Test system: C5aR extracellular side
Assay: AFM affinity imaging with C5a tip: specificity and receptor height
Type: binding, human
Conditions: free C5a in solution
Protocol: The reconstituted C5aR sample solution (either wt-C5aR or mutants) was 20-fold diluted in fusion buffer solution (20 mM HEPES, 300 mM NaCl, and 25 mM MgCl2) and adsorbed on freshly cleaved mica for 15 min. After rinsing with imaging buffer (20 mM HEPES and 300 mM NaCl) the sample was transferred to the AFM.
Rectangular Si3N4 AFM cantilevers with silicon tips (BioLever mini, Bruker) were first cleaned with chloroform for 10 min, rinsed with ethanol, N2 dried, and then cleaned for 15 min in an ultraviolet radiation and ozone cleaner (UV-O, Jetlight, CA, USA). For the aminofunctionalization, the cantilevers were immersed in an ethanolamine solution (3.3 g ethanolamine in 6.6 ml DMSO) overnight and then rinsed in DMSO (3 × 1 min) and ethanol (3 × 1 min), followed by N2 drying. This was followed by the N-hydroxysuccinimide (NHS)-PEG27-acetal linker attachment. […]
In FD-based AFM measurements, the AFM cantilever is oscillated in a sinusoidal manner well below its resonance frequency, while the sample surface is contoured pixel-by-pixel. For each approach–retraction cycle of the oscillating cantilever, a force–distance curve is recorded. […] Adhesion maps were recorded using a scan rate of 0.2 Hz and 256 × 256 pixels. […]
Several control experiments were designed to ensure that the measured interactions were indeed specific and the functionalization of the AFM tip successful. […]

B1: C5a: C5a, a large 74-amino acid glycoprotein; endogenous ligand of C5aR (His6-tag at N-terminal end for AFM tips) (protein)
chain: TLQKKIEEIAAKYKHSVVKKCCYDGACVNNDETCEQRAARISLGPRCIKAFTECCVVASQLRANISHKDMQLGR
modifications: left off: His6, N-terminal, kept
binding probability of C5a tip after blocking with free C5a: significantly reduces the binding probability
